T1: G9a and GLP (Homo sapiens, UniProt Q96KQ7+Q9H9B1)
T1 sequence (Q96KQ7 2-1210 limits assumed): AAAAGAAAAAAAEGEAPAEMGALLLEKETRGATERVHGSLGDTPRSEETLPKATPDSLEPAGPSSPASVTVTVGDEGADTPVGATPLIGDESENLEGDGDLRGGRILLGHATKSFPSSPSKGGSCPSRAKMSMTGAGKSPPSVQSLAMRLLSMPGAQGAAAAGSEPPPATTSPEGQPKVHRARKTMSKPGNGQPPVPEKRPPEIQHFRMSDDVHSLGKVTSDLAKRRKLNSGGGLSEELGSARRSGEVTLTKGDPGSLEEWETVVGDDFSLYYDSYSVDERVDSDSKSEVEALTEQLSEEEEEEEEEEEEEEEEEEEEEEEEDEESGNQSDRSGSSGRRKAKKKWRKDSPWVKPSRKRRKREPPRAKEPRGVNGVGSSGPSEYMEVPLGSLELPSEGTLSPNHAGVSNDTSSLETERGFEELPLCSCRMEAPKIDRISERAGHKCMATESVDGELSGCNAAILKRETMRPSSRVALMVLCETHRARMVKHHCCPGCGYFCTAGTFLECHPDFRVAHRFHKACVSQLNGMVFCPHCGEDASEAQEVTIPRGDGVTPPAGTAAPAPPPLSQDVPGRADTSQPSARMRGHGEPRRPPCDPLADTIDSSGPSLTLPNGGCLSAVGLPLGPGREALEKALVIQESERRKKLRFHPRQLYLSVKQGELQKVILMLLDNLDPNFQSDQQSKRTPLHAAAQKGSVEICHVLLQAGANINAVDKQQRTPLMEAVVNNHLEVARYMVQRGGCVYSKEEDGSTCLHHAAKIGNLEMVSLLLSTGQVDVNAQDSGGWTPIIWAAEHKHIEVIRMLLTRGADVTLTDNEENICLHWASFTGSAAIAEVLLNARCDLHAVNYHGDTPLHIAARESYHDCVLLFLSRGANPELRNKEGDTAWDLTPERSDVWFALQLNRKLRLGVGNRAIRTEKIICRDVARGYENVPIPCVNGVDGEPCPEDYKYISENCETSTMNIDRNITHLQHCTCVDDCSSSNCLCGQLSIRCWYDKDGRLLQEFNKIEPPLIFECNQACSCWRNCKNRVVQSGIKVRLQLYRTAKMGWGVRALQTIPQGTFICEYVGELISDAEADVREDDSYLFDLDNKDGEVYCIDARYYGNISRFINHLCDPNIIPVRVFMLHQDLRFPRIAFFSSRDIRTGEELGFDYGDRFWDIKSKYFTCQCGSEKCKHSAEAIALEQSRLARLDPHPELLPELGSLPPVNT
T1 sequence (Q9H9B1 2-1298 limits assumed): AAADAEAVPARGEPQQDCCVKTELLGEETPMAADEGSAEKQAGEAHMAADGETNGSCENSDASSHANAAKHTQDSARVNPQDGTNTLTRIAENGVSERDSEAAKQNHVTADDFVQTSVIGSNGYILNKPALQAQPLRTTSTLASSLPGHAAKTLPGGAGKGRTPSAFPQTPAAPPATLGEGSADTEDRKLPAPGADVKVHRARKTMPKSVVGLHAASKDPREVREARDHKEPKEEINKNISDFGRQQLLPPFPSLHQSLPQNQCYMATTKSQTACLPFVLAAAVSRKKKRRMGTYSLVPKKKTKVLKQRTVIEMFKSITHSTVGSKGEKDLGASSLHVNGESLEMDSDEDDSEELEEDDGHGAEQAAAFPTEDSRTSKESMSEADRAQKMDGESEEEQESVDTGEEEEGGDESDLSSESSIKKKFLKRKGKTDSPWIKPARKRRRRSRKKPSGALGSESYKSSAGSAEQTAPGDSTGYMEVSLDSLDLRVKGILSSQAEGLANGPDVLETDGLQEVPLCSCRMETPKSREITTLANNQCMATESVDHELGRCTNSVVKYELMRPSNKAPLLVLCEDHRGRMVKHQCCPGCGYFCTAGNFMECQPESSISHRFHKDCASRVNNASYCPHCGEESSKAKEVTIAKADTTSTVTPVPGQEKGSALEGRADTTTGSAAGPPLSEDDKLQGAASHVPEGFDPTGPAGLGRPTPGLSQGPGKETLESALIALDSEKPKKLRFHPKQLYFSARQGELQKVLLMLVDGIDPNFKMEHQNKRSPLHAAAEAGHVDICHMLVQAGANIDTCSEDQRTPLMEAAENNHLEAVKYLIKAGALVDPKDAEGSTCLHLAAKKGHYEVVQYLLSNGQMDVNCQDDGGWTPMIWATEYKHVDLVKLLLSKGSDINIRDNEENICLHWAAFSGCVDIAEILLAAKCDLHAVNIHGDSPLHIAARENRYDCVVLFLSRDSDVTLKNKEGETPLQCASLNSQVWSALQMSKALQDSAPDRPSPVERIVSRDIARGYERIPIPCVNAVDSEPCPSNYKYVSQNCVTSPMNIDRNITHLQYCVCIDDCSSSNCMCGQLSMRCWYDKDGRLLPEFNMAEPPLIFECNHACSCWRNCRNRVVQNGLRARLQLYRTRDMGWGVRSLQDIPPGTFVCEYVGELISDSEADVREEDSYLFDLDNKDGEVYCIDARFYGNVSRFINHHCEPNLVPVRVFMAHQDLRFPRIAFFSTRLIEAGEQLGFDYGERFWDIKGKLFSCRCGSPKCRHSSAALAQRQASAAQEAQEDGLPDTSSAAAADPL

B1: HNRNPA1 (protein, UniProt P09651 1-372, looked up)
Heterogeneous nuclear …: MSKSESPKEPEQLRKLFIGGLSFETTDESLRSHFEQWGTLTDCVVMRDPNTKRSRGFGFVTYATVEEVDAAMNARPHKVDGRVVEPKRAVSREDSQRPGAHLTVKKIFVGGIKEDTEEHHLRDYFEQYGKIEVIEIMTDRGSGKKRGFAFVTFDDHDSVDKIVIQKYHTVNGHNCEVRKALSKQEMASASSSQRGRSGSGNFGGGRGGGFGGNDNFGRGGNFSGRGGFGGSRGGGGYGGSGDGYNGFGNDGGYGGGGPGYSGGSRGYGSGGQGYGNQGSGYGGSGSYDSYNNGGGGGFGGGSGSNFGGGGSYNDFGNYNNQSSNFGPMKGGNFGGRSSGPYGGGGQYFAKPRNQGGYGGSSSSSSYGSGRRF
B2: SEPT2 (protein, UniProt Q15019 1-361, looked up)
Septin-2: MSKQQPTQFINPETPGYVGFANLPNQVHRKSVKKGFEFTLMVVGESGLGKSTLINSLFLTDLYPERVIPGAAEKIERTVQIEASTVEIEERGVKLRLTVVDTPGYGDAINCRDCFKTIISYIDEQFERYLHDESGLNRRHIIDNRVHCCFYFISPFGHGLKPLDVAFMKAIHNKVNIVPVIAKADTLTLKERERLKKRILDEIEEHNIKIYHLPDAESDEDEDFKEQTRLLKASIPFSVVGSNQLIEAKGKKVRGRLYPWGVVEVENPEHNDFLKLRTMLITHMQDLQEVTQDLHYENFRSERLKRGGRKVENEDMNKDQILLEKEAELRRMQEMIARMQAQMQMQMQGGDGDGGALGHHV
B3: PCBP2 (protein, UniProt Q15366 1-365, looked up)
Poly(rC)-binding protein 2: MDTGVIEGGLNVTLTIRLLMHGKEVGSIIGKKGESVKKMREESGARINISEGNCPERIITLAGPTNAIFKAFAMIIDKLEEDISSSMTNSTAASRPPVTLRLVVPASQCGSLIGKGGCKIKEIRESTGAQVQVAGDMLPNSTERAITIAGIPQSIIECVKQICVVMLETLSQSPPKGVTIPYRPKPSSSPVIFAGGQDRYSTGSDSASFPHTTPSMCLNPDLEGPPLEAYTIQGQYAIPQPDLTKLHQLAMQQSHFPMTHGNTGFSGIESSSPEVKGYWGLDASAQTTSHELTIPNDLIGCIIGRQGAKINEIRQMSGAQIKIANPVEGSTDRQVTITGSAASISLAQYLINVRLSSETGGMGSS
B4: CTTN (protein, UniProt Q14247 1-550, looked up)
Src substrate cortactin: MWKASAGHAVSIAQDDAGADDWETDPDFVNDVSEKEQRWGAKTVQGSGHQEHINIHKLRENVFQEHQTLKEKELETGPKASHGYGGKFGVEQDRMDKSAVGHEYQSKLSKHCSQVDSVRGFGGKFGVQMDRVDQSAVGFEYQGKTEKHASQKDYSSGFGGKYGVQADRVDKSAVGFDYQGKTEKHESQRDYSKGFGGKYGIDKDKVDKSAVGFEYQGKTEKHESQKDYVKGFGGKFGVQTDRQDKCALGWDHQEKLQLHESQKDYKTGFGGKFGVQSERQDSAAVGFDYKEKLAKHESQQDYSKGFGGKYGVQKDRMDKNASTFEDVTQVSSAYQKTVPVEAVTSKTSNIRANFENLAKEKEQEDRRKAEAERAQRMAKERQEQEEARRKLEEQARAKTQTPPVSPAPQPTEERLPSSPVYEDAASFKAELSYRGPVSGTEPEPVYSMEAADYREASSQQGLAYATEAVYESAEAPGHYPAEDSTYDEYENDLGITAVALYDYQAAGDDEISFDPDDIITNIEMIDDGWWRGVCKGRYGLFPANYVELRQ
B5: ILF3 (protein, UniProt Q12906 1-894, looked up)
Interleukin enhancer-binding …: MRPMRIFVNDDRHVMAKHSSVYPTQEELEAVQNMVSHTERALKAVSDWIDEQEKGSSEQAESDNMDVPPEDDSKEGAGEQKTEHMTRTLRGVMRVGLVAKGLLLKGDLDLELVLLCKEKPTTALLDKVADNLAIQLAAVTEDKYEILQSVDDAAIVIKNTKEPPLSLTIHLTSPVVREEMEKVLAGETLSVNDPPDVLDRQKCLAALASLRHAKWFQARANGLKSCVIVIRVLRDLCTRVPTWGPLRGWPLELLCEKSIGTANRPMGAGEALRRVLECLASGIVMPDGSGIYDPCEKEATDAIGHLDRQQREDITQSAQHALRLAAFGQLHKVLGMDPLPSKMPKKPKNENPVDYTVQIPPSTTYAITPMKRPMEEDGEEKSPSKKKKKIQKKEEKAEPPQAMNALMRLNQLKPGLQYKLVSQTGPVHAPIFTMSVEVDGNSFEASGPSKKTAKLHVAVKVLQDMGLPTGAEGRDSSKGEDSAEETEAKPAVVAPAPVVEAVSTPSAAFPSDATAEQGPILTKHGKNPVMELNEKRRGLKYELISETGGSHDKRFVMEVEVDGQKFQGAGSNKKVAKAYAALAALEKLFPDTPLALDANKKKRAPVPVRGGPKFAAKPHNPGFGMGGPMHNEVPPPPNLRGRGRGGSIRGRGRGRGFGGANHGGYMNAGAGYGSYGYGGNSATAGYSQFYSNGGHSGNASGGGGGGGGGSSGYGSYYQGDNYNSPVPPKHAGKKQPHGGQQKPSYGSGYQSHQGQQQSYNQSPYSNYGPPQGKQKGYNHGQGSYSYSNSYNSPGGGGGSDYNYESKFNYSGSGGRSGGNSYGSGGASYNPGSHGGYGGGSGGGSSYQGKQGGYSQSNYNSPGSGQNYSGPPSSYQSSQGGYGRNADHSMNYQYR

The molecules below were run on 3×MBT domain of L3MBTL1 (assay: Triple SILAC pull-down, 3xMBT/3xMBTD355N ratio (cytoplasmic, nuclear and chromatin fractions of 293T cells)). Details: SILAC ratio, pull-down 3xMBT vs 3xMBTD355N; experiment with UNC0638 in heavy SILAC media.
Assay type: binding, human
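For 3xMBT/D355N UNC Heavy in this document: proteins quantified with MaxQuant, requiring at least two unique peptides and quantification in both label directions, normalized to the mean of proteins from a digested loading control.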
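For 3xMBT/D355N UNC Light in this document: proteins quantified with MaxQuant, requiring at least two unique peptides and quantification in both label directions, normalized to the mean of proteins from a digested loading control.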
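For Relative to UNC0638 Average in this document: mass spectrometry (Q-Exactive) SILAC quantitation, DMSO/UNC0638 ratio computed after subtracting 3×MBTD355N mutant pull-down background, only proteins with at least twofold 3×MBT over mutant signal considered.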
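For Relative to UNC0638 UNC Heavy in this document: mass spectrometry (Q-Exactive) SILAC quantitation, DMSO/UNC0638 ratio computed after subtracting 3×MBTD355N mutant pull-down background, only proteins with at least twofold 3×MBT over mutant signal considered.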
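For Relative to UNC0638 UNC Light in this document: mass spectrometry (Q-Exactive) SILAC quantitation, DMSO/UNC0638 ratio computed after subtracting 3×MBTD355N mutant pull-down background, only proteins with at least twofold 3×MBT over mutant signal considered.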

Molecule | 3xMBT/D355N UNC Heavy
B1 | 3.75 log base 2
B2 | 1.89 log base 2
B3 | 1.88 log base 2
B4 | 1.52 log base 2
B5 | 3.53 log base 2

Same assay, conditions: SILAC ratio, pull-down 3xMBT vs 3xMBTD355N; experiment with UNC0638 in light SILAC media

Molecule | 3xMBT/D355N UNC Light
B1 | 4.25 log base 2
B2 | 2.49 log base 2
B3 | 2.41 log base 2
B4 | 2.75 log base 2
B5 | 4.28 log base 2

These molecules were tested against T1, G9a and GLP (assay: Triple SILAC pull-down after UNC0638 treatment of 293T cells, DMSO/UNC0638 ratio of protein captured by 3×MBT). Details: SILAC ratio DMSO/UNC0638 of protein pulled down with 3xMBT; UNC0638 in heavy SILAC media.
Assay type: cell-based
Set-up: cells were treated for 24 hours with UNC0638 at 2.5 μM or DMSO vehicle control; endogenous in cells; host or cells: HEK 293T

Relative to UNC0638 UNC Heavy | Molecule
0.09 log base 2 | B1
0.21 log base 2 | B2
0.13 log base 2 | B3
0.26 log base 2 | B4
0.11 log base 2 | B5

Same assay, conditions: SILAC ratio DMSO/UNC0638 of protein pulled down with 3xMBT; UNC0638 in light SILAC media

Relative to UNC0638 UNC Light | Molecule
0.25 log base 2 | B1
0.12 log base 2 | B2
0.21 log base 2 | B3
0.08 log base 2 | B4
0.23 log base 2 | B5

Same assay, conditions: average of UNC Light and UNC Heavy experiments

Relative to UNC0638 Average | Molecule
0.17 log base 2 | B1
0.17 log base 2 | B2
0.17 log base 2 | B3
0.17 log base 2 | B4
0.17 log base 2 | B5
